Test results: the supplement of paper PMC10724198
± gives the standard deviation of the averaged measurements.

Tested on: Saccharomyces cerevisiae
Experiment: protein stability index of tFT-peptide fusion (C-terminal peptide) (PSI (0-1 scale)); higher = more stable (slower turnover)
Details: genetic background: wild type; temperature: 30 C
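Further: PSI is a weighted mean of sequencing reads over stability bins, variants kept only with over 10 reads, mCherry proximal and sfGFP distal, peptide attached via GGGS linker.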

Row | Sequence | protein stability index
1 | QNKKNKNKKKKE | 0.706 ± 0.027
2 | ASSLSPSTFFCL | 0.642 ± 0.015
3 | PPPPIRRPASHL | 0.76 ± 0.058
4 | RDVVRGVSRGGR | 0.714 ± 0.02
5 | VSRGGMSGIVCL | 0.773 ± 0.11
6 | FLLVHIFSLFCL | 0.547 ± 0.013
7 | YTTVRGETRSQL | 0.727 ± 0.017
8 | SPVPIPPSPSRP | 0.687 ± 0.019
9 | NKQTAEIGRGSC | 0.651 ± 0.03
10 | VMWNLVCLRRSQ | 0.6271 ± 0.0012
11 | SPVRPPLSSLYS | 0.705 ± 0.04
12 | PPHAAPPHICWQ | 0.727 ± 0.049
13 | GSEAVQRKNESC | 0.724 ± 0.08
14 | LPPRPPESLHLP | 0.724 ± 0.03
15 | PLPFPSTPPPPD | 0.691 ± 0.031
16 | PNLARPSTPTTS | 0.72 ± 0.023
17 | PPPPSLPPPPRS | 0.693 ± 0.035
18 | TNRIRGTARKVK | 0.67 ± 0.055
19 | GWGGVWGRVWWR | 0.563 ± 0.05
20 | QPPPPPPRPPPP | 0.504 ± 0.016
21 | NNSLPTDVDKYL | 0.683 ± 0.019
22 | CTFSGSHGSFPS | 0.717 ± 0.028
23 | TNVPVLTLMVYL | 0.591 ± 0.089
24 | PHPPSDLLPYRP | 0.691 ± 0.022

Row | Sequence | protein stability index
25 | SPRSPACPTPDR | 0.734 ± 0.011
26 | FGVALGLRACAG | 0.668 ± 0.059
27 | PPLLHPLPPPLP | 0.659 ± 0.014
28 | SDRLLYLGNYDV | 0.773 ± 0.0011
29 | LLLPPLSSSPPP | 0.7111 ± 0.0032
30 | PSLSPAPLPGLP | 0.706 ± 0.042
31 | SLSSPILYLFAS | 0.65 ± 0.013
32 | SFPPSPLPPPPR | 0.586 ± 0.018
33 | PHPPHLRPLCPR | 0.719 ± 0.029
34 | PTPSLPCPDHPL | 0.693 ± 0.0098
35 | PPPHAARSLFSL | 0.733 ± 0.098
36 | GYRSLADSIDLL | 0.7244 ± 0.0066
37 | VCGGRQVGWGGW | 0.684 ± 0.045
38 | WGGSGGREPGGS | 0.753 ± 0.066
39 | APGPPPLPHPPT | 0.717 ± 0.022
40 | PCLSFPPALRAA | 0.641 ± 0.012
41 | WGWGGGRDGCGV | 0.643 ± 0.1
42 | VGWQGRWWLWGG | 0.568 ± 0.03
43 | RVSLREVKAEKN | 0.682 ± 0.057
44 | LSATWLKAIVYW | 0.578 ± 0.012
45 | VRRRKLAKCEVN | 0.474 ± 0.058
46 | LKGSVGGVCHTC | 0.709 ± 0.032
47 | LWSYFLGLHPSD | 0.773 ± 0.038
48 | SHKPDLTNVRFV | 0.707 ± 0.044

Row | Sequence | protein stability index
49 | DLYLETSCSIGG | 0.6723 ± 0.0032
50 | WEAPCGGTLVGR | 0.697 ± 0.048
51 | FLLSLLAFRFFL | 0.478 ± 0.04
52 | PSLIRTPTTPSP | 0.69 ± 0.018
53 | PLPFPLLPPPPH | 0.705 ± 0.013
54 | VRGRVGYFIVRK | 0.642 ± 0.044
55 | GGLREPIYQLWV | 0.648 ± 0.076
56 | PLAPPLRPLVSP | 0.66 ± 0.076
57 | THSTLRRFSGYS | 0.7005 ± 0.001
58 | KGIDTYVLQRNE | 0.715 ± 0.0095
59 | PLHPSFPPPPAP | 0.5147 ± 0.0044
60 | LYSNVLAAVMTG | 0.623 ± 0.043
61 | KRKEDSILVISC | 0.662 ± 0.029
62 | ADCLSCRVLIVM | 0.484 ± 0.075
63 | SGSITAGLVRNV | 0.6152 ± 0.0051
64 | SRGARRRGGAGR | 0.656 ± 0.056
65 | SPRLSGVPGHAP | 0.663 ± 0.027
66 | WSTGEKMALHGR | 0.787 ± 0.12
67 | LPLPLPWHSCPP | 0.721 ± 0.029
68 | IAFLSRCWSFYL | 0.49 ± 0.014
69 | LEQAGFWWPKGL | 0.764 ± 0.0087
70 | AGCGGRCEAGDR | 0.67 ± 0.011
71 | GSGGGGGYVSGN | 0.69 ± 0.021
72 | FVFGECRGWALV | 0.76 ± 0.046
